Our source for the stoichiometry N values is article PMC2791412.

In this experiment the target is BIQ, fluorescent reporter containing an IQ domain sequence derived from neuromodulin (UniProt P17677). Nature of the experiment: other fluorescence titration.
Sequence of BIQ, fluorescent reporter containing an IQ domain sequence derived from neuromodulin (P17677 31-60): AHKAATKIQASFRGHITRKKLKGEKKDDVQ

Consider “calmodulin (native vertebrate CaM) (from UniProt P0DP23 1-149) (natural protein)”, for which the stoichiometry N came to 1.
